Results: the supplement of paper PMC10724198
± gives the standard deviation of the averaged measurements.

test system: Saccharomyces cerevisiae; experiment: protein stability index of tFT-peptide fusion (C-terminal peptide) (PSI (0-1 scale)); higher = more stable (slower turnover); conditions: genetic background: wild type; temperature: 30 C
Experimental: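 Multiplexed protein stability (MPS) profiling in S. cerevisiae. Random 12-aa peptides (tFT-X12 library) are fused to the C-terminus of a sfGFP-mCherry tandem fluorescent timer, after mCherry and a GGGS linker. Cells are FACS-sorted into 8 mCherry/sfGFP bins and deep-sequenced. The protein stability index (PSI) is the read-weighted bin average, scaled from 0 (unstable) to 1 (stable). Only peptides with >10 reads are reported; cells were grown at 30 °C in SC-His with glucose.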
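Also: PSI is a weighted mean of sequencing reads over stability bins, variants kept only with over 10 reads, mCherry proximal and sfGFP distal, peptide attached via GGGS linker.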

Sequence | protein stability index
LRGVGGAGVFFG | 0.675 ± 0.025
GLTWLVLGFPGS | 0.757 ± 0.052
DCPLPPRYRAPL | 0.691 ± 0.043
PLWRVPPYPPSP | 0.691 ± 0.031
TSPPPLPLPSLR | 0.686 ± 0.013
PPTSPSNALPFA | 0.6666 ± 0.0032
LQHGKSRCAFRK | 0.652 ± 0.026
SPGRPGLGGGAW | 0.776 ± 0.26
RKKIRKNITQQP | 0.692 ± 0.052
SVLVTASSFLYF | 0.649 ± 0.027
PLPPPLPQAPPT | 0.695 ± 0.021
RVLSWSGRQSWC | 0.668 ± 0.045
RHSLPSPPAFCL | 0.723 ± 0.0092
PHHPPPPLPCVV | 0.632 ± 0.071
VGRAPDFLYGVW | 0.691 ± 0.044
VTGSGVGGSPEC | 0.683 ± 0.042
PRVCSCFLPTRP | 0.711 ± 0.01
PPPFPPPPLFPL | 0.714 ± 0.032
PYSGSPRALPRP | 0.716 ± 0.069
PSTPPPPPGDFL | 0.709 ± 0.037
PWQSSPFTPALT | 0.649 ± 0.057
VCTVSGFGVLGA | 0.751 ± 0.15
MKRMIKREIKIK | 0.679 ± 0.089
AFRKRTFKQESC | 0.642 ± 0.0098
RGGGFIGSFFMG | 0.751 ± 0.15

Sequence | protein stability index
LPAPPPLPPPHP | 0.712 ± 0.065
GVAGGGTVVGAQ | 0.693 ± 0.017
GPCTTFVVLLPE | 0.778 ± 0.14
ALWARSGRVILI | 0.674 ± 0.05
LYVLHCSLIEEV | 0.543 ± 0.051
IIVGFFGLLLGL | 0.5413 ± 0.0048
FRQWCTEVYIEV | 0.531 ± 0.031
WLVPLDYKEGVV | 0.687 ± 0.035
PHPHRPPRSFLL | 0.704 ± 0.1
LLPALPPRCISF | 0.7343 ± 0.005
TATYCFNALRRS | 0.72 ± 0.052
GVYVGWFMRSGG | 0.678 ± 0.015
PIVSISLGIGSS | 0.6758 ± 0.001
RIPSKSHAWVLV | 0.483 ± 0.058
CRILRPITLRFR | 0.528 ± 0.013
PKAMRPKLVVFR | 0.682 ± 0.024
THSPSPTTAPIP | 0.688 ± 0.011
DIKATRTYNHKV | 0.68 ± 0.029
ASVLFILAIPDL | 0.565 ± 0.039
LVCRRYSGDSSS | 0.637 ± 0.023
EKTKEEKKLRTK | 0.647 ± 0.046
LGSSPPPTLPPP | 0.701 ± 0.031
FLRGLCGKMSKG | 0.673 ± 0.0081
PTRQTIWPPPAS | 0.748 ± 0.026
CRLTAWDESGSG | 0.673 ± 0.025

Sequence | protein stability index
LPLSTLGPLARL | 0.725 ± 0.18
PSYKRGGSYPMQ | 0.692 ± 0.049
IPPPVLPSPPSP | 0.672 ± 0.1
EDKETETSVNQK | 0.6758 ± 0.0059
PPHPSPPPPSHS | 0.693 ± 0.039
TPPPSSLVIFFI | 0.675 ± 0.11
LLPPPPPPPSTP | 0.772 ± 0.0067
VACSVVVPGLGG | 0.69 ± 0.017
YLSACLCGGFCS | 0.684 ± 0.047
KTRTGMWDEQGV | 0.701 ± 0.016
MAWGVGTRRLGW | 0.679 ± 0.044
VWGRRVMESHGE | 0.628 ± 0.042
LTCYFSASNVLW | 0.615 ± 0.046
GFLGCGSGCGGG | 0.777 ± 0.1
KARIADRKMWGN | 0.684 ± 0.017
HSPASLPHLSGK | 0.728 ± 0.063
TLALQFPFKLLF | 0.653 ± 0.025
EKYSSHPMDTRQ | 0.653 ± 0.013
RFVDLASFLTFR | 0.587 ± 0.031
RLVCLVTQSVPH | 0.613 ± 0.021
CYCPPPGMPVPF | 0.736 ± 0.095
RRRAEGRRGVRA | 0.6223 ± 0.0014
TKILRGQKRRAA | 0.637 ± 0.1
FPRRPHVESHIR | 0.7359 ± 0.0042
FFLRLCTPPYFH | 0.651 ± 0.0097

Sequence | protein stability index
LTPLPPPPLRPP | 0.599 ± 0.024
SFSACGEPVPPG | 0.661 ± 0.0077
TAVPPLFARTWQ | 0.6786 ± 0.0049
NTIPRVTPDKSQ | 0.642 ± 0.093
VFSALAYVVFKG | 0.598 ± 0.032
IWCSCWPGNWET | 0.823 ± 0.12
PPPPPPLFPSPP | 0.772 ± 0.13
PPPPRPPATPFP | 0.676 ± 0.052
VRQGERGGGLGD | 0.747 ± 0.038
CRVALSRGVSLV | 0.65 ± 0.0094
GACDGEGGSRVR | 0.611 ± 0.0075
EMTWGSIWPERH | 0.731 ± 0.05
VYLEWQFGIKEL | 0.648 ± 0.052
VRESLGANACSR | 0.69 ± 0.058
GRRFIPFSSFIR | 0.79 ± 0.096
FLLDRSSADHSL | 0.684 ± 0.1
PPWLPAPFPLPD | 0.695 ± 0.045
AGVGPTHVRPPR | 0.676 ± 0.0079
GGEVGRGRLGVV | 0.628 ± 0.018
REIVLQTSAAYN | 0.613 ± 0.037
PWVSGGMGKGDV | 0.686 ± 0.0075
HCVSPKPFLKSE | 0.695 ± 0.045
PAPPHPPFPLLP | 0.705 ± 0.018
LHHYPLVISGVS | 0.47 ± 0.12
SPPTPPLAPLSP | 0.656 ± 0.042

Sequence | protein stability index
PPPPALWPPPSP | 0.735 ± 0.013
GNVLIRFSCSDS | 0.754 ± 0.05
PLFFLPLPPPLF | 0.6881 ± 0.0046
SSSFLVLSSHFI | 0.701 ± 0.028
SWAGGRWRRVPV | 0.658 ± 0.04
LRSGRCFFVARL | 0.73 ± 0.068
YTGRFDSSDIWY | 0.818 ± 0.057
VCPPPIGYHSYQ | 0.6674 ± 0.0019
TPPSPPLPNQLP | 0.696 ± 0.27
FWFFRGALVHPA | 0.599 ± 0.019
NKEPKRKHKNNK | 0.675 ± 0.017
DIKKRQNIKDRK | 0.686 ± 0.051
LPPPPPPPPSTP | 0.734 ± 0.0076
SLFNADPYGFNL | 0.711 ± 0.03
GYATVILYPSID | 0.653 ± 0.029
EGGETDRSLMVV | 0.66 ± 0.014
SIIIPATCEYLV | 0.603 ± 0.013
PPPPLTPPHLSP | 0.713 ± 0.039
LFLPLPRCHALP | 0.7037 ± 0.0066
CEVCRGSDRCDV | 0.609 ± 0.015
RVSLSHPDRCAG | 0.7264 ± 0.0025
STFASLRPLFFS | 0.6128 ± 0.0012
FSTLLVSPLQAS | 0.641 ± 0.022
IKNKDLISVIII | 0.646 ± 0.042
VFTFGAGFGARL | 0.801 ± 0.022

Sequence | protein stability index
TISEGMSGRRRR | 0.759 ± 0.013
LPPIAFPPSFSP | 0.69983 ± 0.00059
SGSAPFLRTSKL | 0.685 ± 0.061
SVGRPVACLFVH | 0.5115 ± 0.0019
EKYASINSSKPP | 0.671 ± 0.068
PPPPHPPPSLRA | 0.67716 ± 6e-05
PPSLRFLLPPSA | 0.685 ± 0.058
RRPSSCSPLPLY | 0.695 ± 0.03
SSFCWAGWGGVC | 0.778 ± 0.059
PPPHPPPPPLPS | 0.635 ± 0.021
PPTFPHLPHSWP | 0.792 ± 0.018
PRPLFVHTSSTF | 0.7105 ± 0.0024
DVDWVLTLGCLG | 0.647 ± 0.034
FVIAGDLYGLYV | 0.658 ± 0.045
PMPPPPPACSLD | 0.777 ± 0.11
PHPPPSLLPSAP | 0.7612 ± 0.0037
KKKTSKVIIREG | 0.689 ± 0.0085
LPGGVGCVGSPV | 0.721 ± 0.037
ALRLLRFPSPPP | 0.628 ± 0.049
VGFYRADSLLIF | 0.5763 ± 0.0049
LRVYIRAAWVGL | 0.604 ± 0.016
DKTPRSHKKTAE | 0.738 ± 0.022
RLPLASPPHSSP | 0.675 ± 0.056
VLTGFTGSAIIG | 0.682 ± 0.03
APSPRPSRPPPL | 0.671 ± 0.034

Sequence | protein stability index
PNETQTQRPATR | 0.683 ± 0.025
PLRPAPVLYPAF | 0.654 ± 0.012
RVSVRGLESGVC | 0.665 ± 0.026
RKSDGMKSCLMG | 0.684 ± 0.016
GVPLSGLVCPRP | 0.7103 ± 0.001
SPWFPLPSFPLA | 0.73 ± 0.029
VMTRVIYRGVGR | 0.6643 ± 0.00051
GSSDTYLLSLVD | 0.733 ± 0.052
VLGVTVRFRGIS | 0.642 ± 0.057
VFRCSGLFFRDG | 0.6621 ± 0.0033
PPSVPAPPLPDP | 0.675 ± 0.038
EHFGFYFIFNLY | 0.58 ± 0.034
RSHSTSSETNFV | 0.6885 ± 0.0024
PPPLTYPTSPPS | 0.661 ± 0.019
STVSRHPSSPLP | 0.737 ± 0.039
NPHRRPPRAPWP | 0.689 ± 0.039
QFCYSNPVSRYG | 0.6899 ± 0.004
SLRQEFDAIFVG | 0.604 ± 0.039
RMIPYDLIRLTR | 0.705 ± 0.012
GTSSTPPPPAPP | 0.661 ± 0.016
WPGRTGANTRSG | 0.671 ± 0.11
SPPPAPPPISPS | 0.708 ± 0.15
WAFSAFDHCVAS | 0.665 ± 0.058
PPPPSLLPPSPS | 0.702 ± 0.068
SFGIGFFATRGF | 0.676 ± 0.031

Sequence | protein stability index
PPRPTPLPHAPP | 0.681 ± 0.02
RFSLGLIFLPSL | 0.68 ± 0.044
ATHPPPPPLPPI | 0.648 ± 0.068
SFGPQFLAPVFS | 0.706 ± 0.031
YMCPSFCLPLFP | 0.731 ± 0.1
SFPRPTSALSLN | 0.604 ± 0.075
QSIESKKIKQKE | 0.7109 ± 0.0048
SPAPRAPRGICL | 0.706 ± 0.017
DACPLAEGGGAA | 0.717 ± 0.035
PPAPRPPLFPYP | 0.697 ± 0.043
KKKFNNFIKIIH | 0.631 ± 0.027
VLAGTGGCASVW | 0.739 ± 0.022
DQNNSQIRHEQP | 0.575 ± 0.03
KKKKKKKNKKRK | 0.683 ± 0.019
RDSVLSFSALQV | 0.681 ± 0.0097
PRPLLVPPLFKS | 0.768 ± 0.031
PPLRPPRPHQHS | 0.636 ± 0.039
PAPLSPTHPPLP | 0.71 ± 0.053
YIKKTTPTIERG | 0.7157 ± 0.0039
HNRADKLQTTIE | 0.69 ± 0.033
YSREVVGKQLFM | 0.693 ± 0.027
